From the supplement of paper PMC12764529 come the findings set out here.

± gives the half width of the 95% confidence interval.

Data set [1] is described as follows: folding stability dG unfold (combined trypsin and chymotrypsin); higher = more stable. Summed up: (§1)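 Unfolding free energy was derived, per protease or combined, by relating Bayesian-fitted K50 values from sequencing counts to a sequence-predicted unfolded-state K50 and a shared folded-state K50. The underlying digests exposed cysteine-free mini-proteins under 80 residues, in a PA-tagged cDNA display construct, to trypsin and chymotrypsin at 11 threefold-diluted concentrations and to a no-protease condition. A filter kept only designs with AlphaFold2 dimer inter-PAE above 15.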

Data set [2] can be described thus: folding stability dG unfold from trypsin proteolysis; higher = more stable. The procedure, abridged:
as §1

The nature of data set [3]: folding stability dG unfold from chymotrypsin proteolysis; higher = more stable. Summed up:
as §1

As to “SAGGSAGGSASSVVTPISHPDGRTGTKVTLPNGTVIEFIFYPDGTIIEINHSNNTTTVTPLVSAGGSAGGSA [r18_285_JUSTAS]”, the “folding stability dG unfold” value in data set [1] was determined as 1.53 ± 0.031 kcal/mol; in data set [2], 1.44 ± 0.04 kcal/mol; in data set [3], 1.55 ± 0.017 kcal/mol.
Take “SAGGSAGGSASTTVTYVEIKVTNPNPPGTPVAEYLIPLSEITEEMIEKLEKEGGLKVEVTVVLSAGGSAGGS [r12_398_JUSTAS]”: the “folding stability dG unfold” value in data set [1] came to 1.41 ± 0.058 kcal/mol; in data set [2], 1.2 ± 0.12 kcal/mol; in data set [3], 1.44 ± 0.033 kcal/mol.
The corresponding values for “SAGGSAGGSASVKELAEKLAEPGQTVMVIKRDGKEYLIVMSDEEAEALRKLFPDMEIERVRLSAGGSAGGSA [r18_198_TrROS_Hall]” are 1.81 ± 0.062 kcal/mol, 1.59 ± 0.02 kcal/mol and 1.93 ± 0.023 kcal/mol.
For “SAGGSAGGSASVTVSPTPDDTWRVEVTETRYFFDPDGRPIGPVTITSSRVVSSEEEAAALLSAGGSAGGSAG [r3_232_JUSTAS]” the same measures were 0.49 ± 0.15 kcal/mol, 0.537 ± 0.038 kcal/mol and 0.397 ± 0.15 kcal/mol.
The corresponding values for “SAGGSAGGSASVTVVPSPGPTTTVVTFSPDDTVTVTTHTVDPSAATSTPTTTTVSLSDPAAASAGGSAGGSA [r18_503_JUSTAS]” are 1.73 ± 0.03 kcal/mol, 2.08 ± 0.044 kcal/mol and 1.44 ± 0.015 kcal/mol.
In the case of “SAGGSAGGSASWITITGLLPGGRLVTTRYDPSTGSVSTETTPIPPVPAFPLGPENLALNFLLSAGGSAGGSA [r18_236_JUSTAS]”, the “folding stability dG unfold” value in data set [1] stood at 0.746 ± 0.13 kcal/mol; in data set [2] it was 0.706 ± 0.044 kcal/mol; in data set [3] it was 0.528 ± 0.19 kcal/mol.
Take “SAGGSAGGSASYIPVTYSFFFPDKPYVERVEAEYELGPDGTPRILSAKVEVFPVDFSPDELSAGGSAGGSAG [r3_138_TrMRF]”: the “folding stability dG unfold” value was 0.663 ± 0.068 kcal/mol in data set [1], 0.823 ± 0.039 kcal/mol in data set [2] and 0.279 ± 0.16 kcal/mol in data set [3].
With “SAGGSAGGSATITITVDGKTITLEVPEDSEVEIVFDEKTGKLFIKDKKTNKVYEVSLEELLSAGGSAGGSAG [r3_137_TrROS_Hall]”, the results for the “folding stability dG unfold” value in data set [1], in data set [2] and in data set [3] were 3.92 ± 0.13 kcal/mol, 3.58 ± 0.22 kcal/mol and 3.98 ± 0.15 kcal/mol, respectively.
With “SAGGSAGGSATRVEVEWKDGYLVITKYETLPNGEWKEVKTIVIPIEGNDPIAIEKAKEVIEKLSAGGSAGGS [r12_169_JUSTAS]”, the “folding stability dG unfold” value is 2.9 ± 0.064 kcal/mol in data set [1], 2.89 ± 0.051 kcal/mol in data set [2] and 2.89 ± 0.049 kcal/mol in data set [3].
Take “SAGGSAGGSATTVTVESDPATGTRFVYETDEKNPGLLKVTKVTTLPDGSVVVETGYISPEKLSAGGSAGGSA [r18_505_JUSTAS]”: the results for the “folding stability dG unfold” value in data set [1], in data set [2] and in data set [3] were 1.61 ± 0.11 kcal/mol, 1.45 ± 0.051 kcal/mol and 1.74 ± 0.043 kcal/mol, respectively.
For “SAGGSAGGSATVTVTETNEDGEETTTEVEVFEVKPPPAPVLKVEAVIDPETNELVDVKVELFASAGGSAGGS [r12_539_TrROS_Hall]” the same measures were 0.784 ± 0.14 kcal/mol, 1.36 ± 0.1 kcal/mol and 0.201 ± 0.14 kcal/mol.
Take “SAGGSAGGSAVAEEFKKKFPDKTVTVEAFTFERTVTHPDGGSSTERVTVLNVTVSSSDDPGSAGGSAGGSAG [r3_358_TrMRF]”: the figures for the “folding stability dG unfold” value in data set [1], in data set [2] and in data set [3] were 1.96 ± 0.11 kcal/mol, 1.35 ± 0.071 kcal/mol and 2.15 ± 0.1 kcal/mol, respectively.
As to “SAGGSAGGSAVETLVTYEVPEDLPPDSLSPEAVIARFAPLGVPTEVVEIDPATGTVTVRTLVPSAGGSAGGS [r12_733_JUSTAS]”, the entries for the “folding stability dG unfold” value in data set [1], in data set [2] and in data set [3] were 0.664 ± 0.047 kcal/mol, -0.377 ± 0.13 kcal/mol and 1 ± 0.037 kcal/mol, respectively.
For “SAGGSAGGSAVPFVLPDGYVLEVEPDPETGLYRIRVTSPDGRTYEFTAPPDVPLADIPVVIDDSAGGSAGGS [r12_261_TrMRF]”, the “folding stability dG unfold” value in data set [1] came out at 2.95 ± 0.053 kcal/mol; in data set [2] it was 2.89 ± 0.059 kcal/mol; in data set [3], 2.96 ± 0.034 kcal/mol.
For “SAGGSAGGSAVRTIFIPGGNIKDIIELIKSDPGQPVQIHAPDGWVIKITGDKDIDIHPFPDSAGGSAGGSAG [r3_269_TrROS]”, the “folding stability dG unfold” value was 0.216 ± 0.15 kcal/mol in data set [1], -0.44 ± 0.2 kcal/mol in data set [2] and 0.337 ± 0.084 kcal/mol in data set [3].
On to “SAGGSAGGSAVTIYIPWDEILEELGLPPEDVEYKPMKNGSYSFKYKNGKPVTIIMPPEDFKSAGGSAGGSAG [r3_477_TrROS]”, for which the “folding stability dG unfold” value in data set [1] is 0.663 ± 0.19 kcal/mol; in data set [2] it was -0.12 ± 0.29 kcal/mol; in data set [3], 1.07 ± 0.2 kcal/mol.
For “SAGGSAGGSAVVALTPDGALAVWFPEKGVVVVYNPATGTYTVLTVDADNTVTLEDVPPNTDVFSAGGSAGGS [r12_997_TrMRF]” the same measures were 1.34 ± 0.057 kcal/mol, 1.46 ± 0.032 kcal/mol and 1.13 ± 0.07 kcal/mol.
On to “SAGGSAGGSDDDENQKENQKAKPIKLEPIVEITVPYPDGFSLTVPIWRWPDGGIGIELEIFPLGSAGGSAGG [r6_326_TrROS]”, for which the “folding stability dG unfold” value in data set [1] came to 1.3 ± 0.37 kcal/mol; in data set [2], 0.867 ± 0.071 kcal/mol; in data set [3], 1.44 ± 0.045 kcal/mol.
